Our source for the Kd values is paper PMC3494873 (EMBO Molecular Medicine, 2012).

Where two headings read alike, the source gives them in different places.

B1: Recombinant Fc-his-tag-E-cadherin (extracellular portion) (Fc fusion, UniProt P12830 155-709, looked up)
chain: DWVIPPISCPENEKGPFPKNLVQIKSNKDKEGKVFYSITGQGADTPPVGVFIIERETGWLKVTEPLDRERIATYTLFSHAVSSNGNAVEDPMEILITVTDQNDNKPEFTQEVFKGSVMEGALPGTSVMEVTATDADDDVNTYNAAIAYTILSQDPELPDKNMFTINRNTGVISVVTTGLDRESFPTYTLVVQAADLQGEGLSTTATAVITVTDTNDNPPIFNPTTYKGQVPENEANVVITTLKVTDADAPNTPAWEAVYTILNDDGGQFVVTTNPVNNDGILKTAKGLDFEAKQQYILHVAVTNVVPFEVSLTTSTATVTVDVLDVNEAPIFVPPEKRVEVSEDFGVGQEITSYTAQEPDTFMEQKITYRIWRDTANWLEINPDTGAISTRAELDREDFEHVKNSTYTALIIATDNGSPVATGTGTLLLILSDVNDNAPIPEPRTIFFCERNPKPQVINIIDADLPPNTSPFTAELTHGASANWTIQYNDPTQESIILKPKMALEVGDYKINLKLMDNQNKDQVTTLEVSVCDCEGAAGVCRKAQPVEAGLQIPA

Test in all cases: SPR
A general note: In SPR one partner is held on a chip, and binding of the other changes the refractive index at the surface.

Experiment [1] addresses T1, Recombinant his-tag-α6β4 integrin (extracellular portions) (UniProt P23229-2 24-1011; P16144 28-710).
Experiment [2] deals with B1.
Experiment [3] concerns the target T1, Recombinant his-tag-α6β4 integrin …. This is another data set of the same source.

As a reminder, the Kd is the concentration at which binding is half-saturated. With B1, the Kd in experiment [1] lay in the range of 0.0053 to 0.0168 µM.

B2: Recombinant angiopoietin-like 6 (ligand, UniProt Q8NI99 21-470, looked up)
chain: RAGAPRCTYTFVLPPQKFTGAVCWSGPASTRATPEAANASELAALRMRVGRHEELLRELQRLAAADGAVAGEVRALRKESRGLSARLGQLRAQLQHEAGPGAGPGADLGAEPAAALALLGERVLNASAEAQRAAARFHQLDVKFRELAQLVTQQSSLIARLERLCPGGAGGQQQVLPPPPLVPVVPVRLVGSTSDTSRMLDPAPEPQRDQTQRQQEPMASPMPAGHPAVPTKPVGPWQDCAEARQAGHEQSGVYELRVGRHVVSVWCEQQLEGGGWTVIQRRQDGSVNFFTTWQHYKAGFGRPDGEYWLGLEPVYQLTSRGDHELLVLLEDWGGRGARAHYDGFSLEPESDHYRLRLGQYHGDAGDSLSWHNDKPFSTVDRDRDSYSGNCALYQRGGWWYHACAHSNLNGVWHHGGHYRSRYQDGVYWAEFRGGAYSLRKAAMLIRPLKL
Take B2: the figures for the dissociation constant (Kd) in experiment [2] and in experiment [3] were 0.029 µM and 0.00203 µM, respectively.
